# *1 amine or outer side, *2 acyl side, *3 side chain or, on linkers, in order; H or OH if unused. Bridges are numbered along the chain shown (N, C = ends). Primed or numbered codes have the meaning given here. [ ]: non-standard residue; d: D form. PyrS2(6) = (S)-3-amino-1-((pent-4-en-1-yloxy)carbonyl)pyrrolidine-3-carboxylic acid, stapled with another olefin-containing amino acid residue through the olefin group, O=C(OCCCC=[*:3])N1CC[C@@](N[*:1])(C(=O)[*:2])C1; B5(4) = 2-amino-2-(pent-4-en-1-yl)hept-6-enoic acid, stapled through each of its two olefin groups with other olefin-containing amino acid residues, O=C(C(CCCC=[*:3])(CCCC=[*:4])N[*:1])[*:2]; PyrS2″ = (S)-3-amino-1-((pent-4-en-1-yloxy)carbonyl)pyrrolidine-3-carboxylic acid (olefin stapling residue), C=CCCCOC(=O)N1CC[C@@](N[*:1])(C(=O)[*:2])C1; PyrS2 = (S)-3-amino-1-((pent-4-en-1-yloxy)carbonyl)pyrrolidine-3-carboxylic acid, olefin staple residue, C=CCCCOC(=O)N1CC[C@@](N[*:1])(C(=O)[*:2])C1; PyrS2(5) = (S)-3-amino-1-((pent-4-en-1-yloxy)carbonyl)pyrrolidine-3-carboxylic acid, C=CCCCOC(=O)N1CC[C@@](N[*:1])(C(=O)[*:2])C1; B5″ = 2-amino-2-(pent-4-en-1-yl)hept-6-enoic acid (bis-olefin stapling residue), C=CCCCC(CCCC=C)(N[*:1])C(=O)[*:2]; B5(5) = 2-amino-2-(pent-4-en-1-yl)hept-6-enoic acid (two olefin arms), C=CCCCC(CCCC=C)(N[*:1])C(=O)[*:2]; 2F3MeF(3) = aromatic amino acid residue, Cc1cccc(C[C@H](N[*:1])C(=O)[*:2])c1F; 2F3MeF″ = aromatic residue, Cc1cccc(C[C@H](N[*:1])C(=O)[*:2])c1F; Phe(3-COOH) = N[C@@H](Cc1cccc(C(=O)O)c1)C(=O)O; 2F3MeF = Cc1cccc(C[C@H](N[*:1])C(=O)[*:2])c1F; Bta = N[C@@H](Cc1csc2ccccc12)C(=O)O; Lys(iPr) = CC(C)NCCCC[C@H](N)C(=O)O; αAllylPro = C=CC[C@@]1(C(=O)O)CCCN1; BztA = aromatic amino acid residue; 4mampiperidine = not defined here; tBuAla = CC(C)(C)C[C@H](N)C(=O)O; 3Thi = N[C@@H](Cc1ccsc1)C(=O)O; Cha = N[C@@H](CC1CCCCC1)C(=O)O; TriAzLys(3) = not defined here; hSer = N[C@@H](CCO)C(=O)O; BztA″ = aromatic residue; Nle = CCCC[C@H](N)C(=O)O; Orn = NCCC[C@H](N)C(=O)O; TfeGA = not defined here; AsnR = not defined here; GlnR = not defined here; sAla = not defined here; PL3 = not defined here; B5 = not defined here
# B1: I-131 (peptide)
# peptide: Ac-[αAllylPro]D[tBuAla][B5]D[Phe(3-COOH)][GlnR]AFL[PyrS2″][2F3MeF″][BztA″][GlnR](29N2spiroundecane)A-NH2
# modifications: reading uncertain; also: staple links not given here, printed as Ac-PL3-Asp-Npg-B5-Asp-3COOHF-GlnR-Ala-Phe-Leu-PyrS2-2F3MeF-BztA-[29N2spiroundecane]GlnR-Ala-NH2
# B2: I-134 (peptide)
# peptide: Ac-[αAllylPro]D[tBuAla][B5]D[Phe(3-COOH)][GlnR]AFL[PyrS2][2F3MeF][Bta][GlnR](29N2spiroundecane)A-NH2
# modifications: staple 1-4, 4-11 (inferred); not fully specified; printed as Ac-PL3-Asp-Npg-B5-Asp-3COOHF-GlnR-Ala-Phe-Leu-PyrS2-2F3MeF-BztA-[29N2spiroundecane]GlnR-Ala-NH2; reading uncertain; also: staple C=C reduced to CH2-CH2
# B3: I-142 (peptide)
# peptide: Ac-[αAllylPro]N[tBuAla][B5]D[Phe(3-COOH)]AAFK[PyrS2(5)][2F3MeF″][BztA″][GlnR]LS-NH2
# modifications: bridge 10-14; not fully specified (bridges); printed as Ac-PL3-Asn-Npg-B5-Asp-3COOHF-Ala-Ala-Phe-Lys*3-PyrS2-2F3MeF-BztA-GlnR*3-Leu-Ser-NH2; reading uncertain; also: Lys10 and GlnR14 marked *3
# B4: I-143 (peptide)
# peptide: Ac-[αAllylPro]N[tBuAla][B5]D[Phe(3-COOH)][Nle]AFK[PyrS2″][2F3MeF″][BztA″][GlnR]LS-NH2
# modifications: bridge 10-14; not fully specified (bridges); printed as Ac-PL3-Asn-Npg-B5-Asp-3COOHF-nLeu-Ala-Phe-Lys*3-PyrS2-2F3MeF-BztA-GlnR*3-Leu-Ser-NH2; reading uncertain; also: Lys10 and GlnR14 marked *3
# B5: I-149 (peptide)
# peptide: Ac-[αAllylPro]N[Cha][B5″]DQ[Lys(iPr)]AF[GlnR][PyrS2″]F[Bta]K-NH2
# modifications: bridge 10-14; reading uncertain; also: PL3-B5 and PyrS2 links not placed, printed as Ac-PL3-Asn-Cha-B5-Asp-Gln-iPrLys-Ala-Phe-GlnR*3-PyrS2-Phe-BztA-Lys*3-NH2
# B6: I-93 (peptide)
# peptide: Ac-[αAllylPro]D[tBuAla][B5(4)]D[Phe(3-COOH)][GlnR]AFL[PyrS2″][2F3MeF(3)][BztA][GlnR](4aminopiperidine)A-NH2
# modifications: staple 1-4 (inferred); not fully specified (bridges); printed as Ac-PL3-Asp-Npg-B5-Asp-3COOHF-GlnR-Ala-Phe-Leu-PyrS2-2F3MeF-BztA-[4aminopiperidine]GlnR-Ala-NH2; reading uncertain
# B7: I-94 (peptide)
# peptide: Ac-[αAllylPro]D[tBuAla][B5(4)]D[Phe(3-COOH)][GlnR](4aminopiperidine)AFL[PyrS2″][2F3MeF(3)][BztA][GlnR]A-NH2
# modifications: staple 1-4 (inferred); not fully specified (bridges); printed as Ac-PL3-Asp-Npg-B5-Asp-3COOHF-[4aminopiperidine]GlnR-Ala-Phe-Leu-PyrS2-2F3MeF-BztA-GlnR-Ala-NH2; reading uncertain
# B8: I-96 (peptide)
# peptide: Ac-[αAllylPro]D[tBuAla][B5(4)]D[Phe(3-COOH)][GlnR]AFL[PyrS2″][2F3MeF(3)][BztA][GlnR](4mampiperidine)A-NH2
# modifications: staple 1-4 (inferred); not fully specified (bridges); printed as Ac-PL3-Asp-Npg-B5-Asp-3COOHF-GlnR-Ala-Phe-Leu-PyrS2-2F3MeF-BztA-[4mampiperidine]GlnR-Ala-NH2; reading uncertain
# B9: I-117 (peptide)
# peptide: Ac-[αAllylPro]D[tBuAla][B5″]N[TfeGA]AAFK[PyrS2″][2F3MeF][Bta][GlnR]A-NH2
# modifications: bridge 10-14; not fully specified (bridges); reading uncertain; also: Lys*3 and GlnR*3 marked *3
# B10: I-148 (peptide)
# peptide: Ac-[αAllylPro]N[Cha][B5″]DQ[hSer]AF[GlnR][PyrS2″]F[Bta]K-NH2
# modifications: bridge 10-14; reading uncertain; also: PL3-B5 and PyrS2 links not placed, printed as Ac-PL3-Asn-Cha-B5-Asp-Gln-Hse-Ala-Phe-GlnR*3-PyrS2-Phe-BztA-Lys*3-NH2
# B11: I-27 (peptide)
# peptide: Ac-[αAllylPro]D[tBuAla][B5(4)]D[Phe(3-COOH)][sAla]AF[TriAzLys(3)][PyrS2(6)][3Thi][Bta]Q-NH2
# modifications: triazole 7-10; not fully specified (bridges); printed as Ac-PL3-Asp-Npg-B5-Asp-3COOHF-sAla*3-Ala-Phe-TriAzLys*3-PyrS2-3Thi-BztA-Gln-NH2; reading uncertain
# B12: I-36 (peptide)
# peptide: Ac-[αAllylPro]D[tBuAla][B5(5)]D[Phe(3-COOH)]AAF[AsnR][PyrS2(5)][3Thi][Bta]K-NH2
# modifications: bridge 10-14; not fully specified (bridges); printed as Ac-PL3-Asp-Npg-B5-Asp-3COOHF-Ala-Ala-Phe-AsnR*3-PyrS2-3Thi-BztA-Lys*3-NH2; reading uncertain
# B13: I-41 (peptide)
# peptide: Ac-[αAllylPro]D[tBuAla][B5(5)]D[Phe(3-COOH)]AAF[AsnR][PyrS2(5)][3Thi][Bta][Orn]-NH2
# modifications: bridge 10-14; reading uncertain; also: PL3/B5/PyrS2 staple links not placed, printed as Ac-PL3-Asp-Npg-B5-Asp-3COOHF-Ala-Ala-Phe-AsnR*3-PyrS2-3Thi-BztA-Orn*3-NH2
# B14: I-83 (peptide)
# peptide: Ac-[PL3]D[tBuAla][B5][hSer][Phe(3-COOH)]AAFK[PyrS2″][3Thi][BztA][GlnR]A-NH2
# modifications: staple 1-4 (inferred); bridge 10-14; not fully specified (residue 10, bridges); printed as Ac-PL3-Asp-Npg-B5-Hse-3COOHF-Ala-Ala-Phe-Lys*3-PyrS2-3Thi-BztA-GlnR*3-Ala-NH2; reading uncertain
# B15: I-87 (peptide)
# peptide: Ac-[PL3]D[tBuAla][B5][hSer][Phe(3-COOH)]SAFK[PyrS2(5)][3Thi][BztA][GlnR]A-NH2
# modifications: staple 1-4 (inferred); bridge 10-14; not fully specified (residue 10, bridges); printed as Ac-PL3-Asp-Npg-B5-Hse-3COOHF-Ser-Ala-Phe-Lys*3-PyrS2-3Thi-BztA-GlnR*3-Ala-NH2; reading uncertain; also: Lys10 and GlnR14 marked *3
# Experiments:
# COLO320DM cells = test: COLO320DM proliferation assay; type: cell-based, human; conditions: read-out: COLO320DM Proliferation Abs IC50
# Protocol: Various technologies can be utilized to assess technologies of the present disclosure. For example, in some embodiments, solubility, LogD, interactions with targets, etc. of various agents such as stapled peptides were assessed using technologies described in WO 2022/261257 (e.g., those in its Examples). In some embodiments, solubility, shake flask LogD, and binding to beta-catenin were assessed. In some embodiments, an assay for assessing interactions, e.g., with beta-catenin, was fluorescence polarization as described in WO 2022/261257. In some embodiments, an assay was Nano-BRET target engagement assay that assessed beta-catenin/TCF4 engagement as described in WO 2022/261257. In some embodiments, an assay was a reporter assay as reported in Example 4 of WO 2022/261257. In some embodiments, an assay was a COLO320DM proliferation assay as reported in Example 4 of WO 2022/261257.
# Among other things, provided technologies can inhibit proliferation of various cells including various cancer cells. In some embodiments, provided technologies modulate WNT specific transcription. In some embodiments, provided technologies induce cell cycle arrest. In some embodiments, provided technologies induce G1 cell cycle arrest. In some embodiments, provided technologies increased proportion of cells in G1 phase of cell cycle. As confirmed in FIG. 3, provided technologies can inhibit proliferation of COLO320DM, which is a colorectal cell line comprising various mutations such as APC, TP53, etc., modulate WNT specific transcription such as of AXIN2 and CXCL12, and induce G1 cell cycle arrest. In some embodiments, it was confirmed that provided technologies can reduce proportion of cells in S phase of cell cycle.
# beta-catenin (human) [1] = test: cell-based or functional assay
# beta-catenin (human) [2] = test: fluorescence polarization; bin >200 nM
# Sequence of beta-catenin (human) (B6V8E6 146-665 limits assumed): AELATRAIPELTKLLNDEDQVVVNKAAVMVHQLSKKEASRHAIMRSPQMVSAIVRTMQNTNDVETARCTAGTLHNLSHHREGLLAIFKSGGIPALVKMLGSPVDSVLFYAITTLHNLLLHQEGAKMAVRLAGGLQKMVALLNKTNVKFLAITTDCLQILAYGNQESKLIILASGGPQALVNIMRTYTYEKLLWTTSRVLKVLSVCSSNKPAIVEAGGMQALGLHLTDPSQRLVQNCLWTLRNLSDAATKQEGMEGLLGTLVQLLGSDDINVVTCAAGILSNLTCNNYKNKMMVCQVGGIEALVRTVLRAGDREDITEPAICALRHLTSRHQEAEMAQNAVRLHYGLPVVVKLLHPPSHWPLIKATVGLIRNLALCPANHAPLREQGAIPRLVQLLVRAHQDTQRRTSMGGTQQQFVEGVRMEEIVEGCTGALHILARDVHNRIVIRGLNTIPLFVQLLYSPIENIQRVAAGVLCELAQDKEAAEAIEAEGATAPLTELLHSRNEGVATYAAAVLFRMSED
Molecule,IC50 (beta-catenin (human) [2]),further results
"CC(=O)N1CCC[C@]12CC=CCCCC1(CCCC=CCCCOC(=O)N3CC[C@@]4(C3)NC(=O)[C@H](CCCCNC(=O)CC[C@@H](C(=O)N[C@@H](C)C(N)=O)NC(=O)[C@H](Cc3csc5ccccc35)NC(=O)[C@H](Cc3ccsc3)NC4=O)NC(=O)[C@H](Cc3ccccc3)NC(=O)[C@H](C)NC(=O)C(C)(C)NC(=O)[C@H](Cc3cccc(C(=O)O)c3)NC(=O)[C@H](CC(=O)O)NC1=O)NC(=O)[C@H](C)NC(=O)[C@H](CC(=O)O)NC2=O (relative stereo) [I-304, Ac-PL3-Asp-Ala-B5-Asp-3COOHF-Aib-Ala-Phe-Lys*3-PyrS2-3Thi-BztA-GlnR*3-Ala-NH2]",,IC50 (COLO320DM cells): ≤ 10 µM
"CC(=O)N1CCC[C@]12CC=CCCCC1(CCCC=CCCCOC(=O)N3CC[C@@]4(C3)NC(=O)[C@H](CCCCNC(=O)CC[C@@H](C(=O)N[C@@H](C)C(N)=O)NC(=O)[C@H](Cc3csc5ccccc35)NC(=O)[C@H](Cc3cccnc3)NC4=O)NC(=O)[C@H](Cc3ccccc3)NC(=O)[C@H](C)NC(=O)C(C)(C)NC(=O)[C@H](Cc3cccc(C(=O)O)c3)NC(=O)[C@H](CC(=O)O)NC1=O)NC(=O)[C@H](CC(C)(C)C)NC(=O)[C@H](CC(=O)O)NC2=O (relative stereo) [I-300, Ac-PL3-Asp-Npg-B5-Asp-3COOHF-Aib-Ala-Phe-Lys*3-PyrS2-3PyrA-BztA-GlnR*3-Ala-NH2]",,IC50 (COLO320DM cells): > 20 µM
B1,< 750 nM,NanoBRET Abs IC50 (beta-catenin (human) [1]): > 10 µM
B2,< 750 nM,NanoBRET Abs IC50 (beta-catenin (human) [1]): > 10 µM
B3,< 750 nM,NanoBRET Abs IC50 (bin >3.0 uM) (beta-catenin (human) [1]): < 10 µM
B4,< 750 nM,NanoBRET Abs IC50 (beta-catenin (human) [1]): > 10 µM
B5,< 750 nM,NanoBRET Abs IC50 (beta-catenin (human) [1]): > 10 µM
B6,< 750 nM,
B7,< 750 nM,
B8,< 750 nM,
B9,< 750 nM,
B10,< 750 nM,
B11,< 750 nM,
B12,< 750 nM,
B13,< 750 nM,
B14,< 750 nM,
B15,< 750 nM,

# Reference: patent US20260207704A1, “STAPLED PEPTIDES AND METHODS THEREOF” (priority 2022, published 2026)
